Reference: the domain aggregation screens of Martell et al. (2025)

Experiment: soluble fraction after stress (log2 fold change); higher = more stays soluble; pooled small domains, quantitative proteomics
Conditions: stress: 75 degC
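Further: 20 min heating vs room temperature control held 20 min.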

Row | Sequence | soluble fraction (log2)
1 | HMKSAIGEEKAENFAFADLGMDPLSAEGVRTEFGFEQGQFVYKVYFTADGTEYEYWIKASDGSVVKKGMDL | -1.53
2 | HMKSAIKQNILLYLSNKGVTSYEFYKISGVTRGILQQSNGISEDNIAKFLAYAPDVNIEWLLTGKGDMLKH | -1.41
3 | HMKSATGKIPDFISDLPVDEFVRELIVTNAFQPLNKFKEVQNHIGSALKIYVDELTEKRANGTVHILYSHK | 0.46
4 | HMKSAYADVAIAKVQDYVNVRAENNEDSEVLGKLYNNSAATVLETTDDGWYKISSGSVTGYVKSEYVVVG | -0.111
5 | HMKSEMYIDLSNALLKMSERDKELLTYRYTMEMSSKEISQITGIKESNVNSYIRRAREKLLKIFNAMNK | -3.73
6 | HMKSFDERQAALNELAKVIEGTGRKAEQDAEFRREQNQLMIDKIDEQLKGDLTDSQREELKKERAALARK | 0.174
7 | HMKSGLLNLSTRKQEKIKQALLSEFSNVSLLEAKVANIVTLAEISRGSFYTYFEDIYDAYQWLASI | -0.513
8 | HMKSIFIRADELAAELDVSKALAYKMINQWNEELKAKGYTTVGGRVSRQYYYEKIYGAENVFDF | -1.76
9 | HMKSILDDVVGLGPVRKKALLSAAGGFRKLRDMDVDEVIGLGAVPEEVAREVVTVLAQYNGERDRVEGL | -0.146
10 | HMKSILSEIPGIGPKKRKSLMMQFGSVKNISEASLKDLSSTKGINSNLSKEIFNFFSVEKNN | -0.0299
11 | HMKSKNILLGEYKGKEVHVGEGKYGPFILYDKKFKSIGAYLTENSLMLKDLTIEDYSKIMKFTENSNSKS | -0.91
12 | HMKSKNRLTKSYLDSIPGVGRKRKSILLRYFGSIDQIKRASSEDIANVPGIGKITSDLVYNYFNQ | -0.811
13 | HMKSLAQELVDALGDRIRDGRLKVGDKLPSEAAIEAQYGVSRTVVREAISRLQAAGLVVTRHGIGTFIVGI | -2.45
14 | HMKSLLDQINGIGAIRKRALLNHFGSARAVESASLDEIKSVEGVEAKVAKKIYNFFHEYKNMLR | -1.51
15 | HMKSLLSRREQEVLELVSRGFSYSEIAELKNLSVHTIQTHIKSLYGKLEVHSKMEAVLEATRMGLLPQ | -2.34
16 | HMKSSLAKNLETLMQERQISQTRLSKISGVSQSYIFKILNDQIKKPSLDTLEKLATALDSTVAQLNH | -0.433
17 | HMKSSTEIIYSDFLREVSNGQISEVTIQGDFVRGLFLSGSSFQTYAPKDSNLINILRDKKVRIKVHPP | -1.07
18 | HMKSTELSIIEALRVLGLKHGASQDSIKKSYRRLVKQHHPDLGGSADSFRKVNEAYQLLIMN | -0.749
19 | HMKSVILQLHPETLRWIREEAQADMADASVIQLLNDWELGTKKPTLSQVQKLSHETHIPFGYFFLKEKPA | -0.64
20 | HMKSVQIPQSITVKEFSQAIEVSVADVIKKLMSMGVMVSQNKEINVDTAILVGEEFGVTVNVA | 0.609
21 | HMKSVTVIFKESGNVVSSKKLSVVATAQYVDKSRITAPAGYRIATTDSKLKISENNTVTVEVK | -0.496
22 | HMKSYTYNPNYLSDYNAYRLGIPLEALERLQLHRSTGRYVNSLSDFQSVTGISDSLKHSLSSSLRFPN | -1.36
23 | HMKTDLQIQQDVMAELKWEPKVNAAHIGVEVKHGVVTLSGHVDSFAEKWNAEQAAKRVAGVKFIAIELDV | -2.1
24 | HMKTEIKSPLPGIVLKIFVRTGEYVDKNQRLFSLEAMKMENEIKAERAGVIAGIRISEGQSVLQDEVIMEM | -3.7

Row | Sequence | soluble fraction (log2)
25 | HMKTFQSYQTTSMSNVNLRKRANGTSTILKRIKVGDTVTVVGKSGNYYQIQFDGKEGYALIKYIDGTDSGA | -1.95
26 | HMKTFSTRLIALREAIGVNQSELARRVGVTPQAVQKWESGANGPRGKRLEKLASELRSTVGYLVSGEGDG | -0.434
27 | HMKTGAKLKNLRKMKKLSQEEVAKVLNLSYSTLSRWENDTRIPTYEDLFKLGQFYGVSVDYLSDPN | -0.98
28 | HMKTGNIITVSLVWKGKYYMIRMFFPSASRPTRSDVQNEIEKVYPGSKLSTFSVSDYEPGQPLLQV | -1.6
29 | HMKTGNPYAQRNTADMYNYGRGIEKDSYLAFVWYFAAYKQGNDNAKPQIDSITASGHLSPNQQLHAKIE | -0.243
30 | HMKTIQVGSTVRVNQGAKTYSGGGLASFVYKRNHKVSQLQGDRAVITYEGTVVAAVHVSDLSLIH | -0.192
31 | HMKTLELIAAIRKRIAGGYAGADGRLPNIGEIAKDFSVSPMTAQKAVRALVEAGVLTSTRRKGVFLKQPAS | -2.09
32 | HMKTLGMDKGVNIALNDAGLRAEDVSNLSAHYDTEDGVPVYEIKFTAGGFSYEYQIKASDGTIIEADRDAA | -0.00738
33 | HMKTMAVYPVGTRVLTSDGEIGVVEKQNSEAPERPVIKILKGADGHDYEKPDFKDLMKILTLFIVDTI | 0.182
34 | HMKTMSLSSIEKAIYKTKYENEPTSQRLSRIESSVFGTNFSQDSESERIARISSAINAQKSAK | 0.0313
35 | HMKTMTTIRKGSRGDTVATLQRKLNLIADGIFGPITDEAVRDFQKSHGLAVDGIVGPKTWAALGVGS | 0.00482
36 | HMKTNQINVSGLSKEKNFEVLESLDVYKFYNLFFLNKIKIDQLINSYNHIDNYSVFKKYPSSLIVKLSE | 0.0213
37 | HMKTPETSEYVVQAGDSLRRILTERYGAKEQDLPYLYRQFRLLNPKVSSLDNIHAGTKVRIPLVASVL | -0.135
38 | HMKTPRKVFTVLIRNTEYDVYDIDGKEHQGYNDTPKTWWLYHSERLPEGMIPPIDSDSWKPYSVGT | -1.27
39 | HMKTTKESLLEYIQREVFTDSIHKEGLSTNEIADAFQIQRSNVSSLLNTLVKEGKLEKTTGRPVLYRIPEK | -0.126
40 | HMKVEFDAMDKRILELMAKEYDTVLMARHLPLTPIVIDVRKKRIREVLNLPDATDAEIVIEAKEKDII | -1.08
41 | HMKVEIVRVVKDIHIGDEITKDMVRTVEVGGYNLPDGVVKDTATVIGRFASADMVPGDYIISSKIADAP | -0.378
42 | HMKVELSENEKIIYDLLSNQEVLLSEIKDKAELSNKAWDKSTKSLRKLGLVIVEKKDDNIYISKS | -0.101
43 | HMKVGEIIKAKREELKIPLVNFAKELDISQGYLSQIENGIKTNPNLDIILKIIHRLDIDLAMLL | -1.93
44 | HMKVIAEESYRILVDAIEKLPPQMKSIMQLALEGKSNPEIAETLNISGETVHSQKKIAYRKLRVYLKD | -2.36
45 | HMKVIETKYNTYVVKSGDTLYSVAKKYGISVTELKEINDLSNNTLSIGQKLLVPATTIIIDE | -0.637
46 | HMKVNMIIVMKPGARETDIQEVSNVLKSAGLGVHISKGTERTIIGVIGDKRLLNGIPLDLMHGVDKLVPIM | -1.24
47 | HMKVNQFEVEGNQRYSTEEIAKASGVSKGDNLFLVNKTETARKLLDELAYVRSVNIKRKLPDTLVITVAE | -0.032
48 | HMKVPDVQYMNKDSAIEALTANELKYTIVEAENENVAAGVVISQSVERDSQVAPGTSVELVVSTG | 0.212

Row | Sequence | soluble fraction (log2)
49 | HMKVQEMTANSFLTQWEAGNVKTLDILPEGIIKGELNDGTKFQLYYSSAAGLIDDVKKNPEKFANTTVSEK | 0.0538
50 | HMKVQEVDYGTFLTMVDEGKVNQVDIENSKQITFNTKGDKNKVYITGQVNDPELVNRLYKAGVEFSQEIP | 0.273
51 | HMKVSNWYFNGAPSATTPPTSQWTTEKDKKAHIGDTFTSLDKSPSPNAGKSWRYTPSYTWEEIV | 0.655
52 | HMKVSRTAVKLHHANAVEVAKKLQPLFVVGDVQIEPVKDAGIILLKGPASTLADLRESIVQMDHTA | -0.188
53 | HMKVTRWEDTGMKPAEAQEWQHYDFKPQEAMNWRDAGFVPLVARTWSDKGFDASEAQAWRDSVRNS | -0.618
54 | HMKVVEKHIVPQIQNPIRLQEYASSIFKTITTRSGIKKAIKKQLILLNRKPANTGDWIKEGQLLELLAEE | -2.53
55 | HMKVYIKDISDLSDKLKSLLIENDIDDSNKLFEVEDQVLLEIKGLGSKTIDKIKDIVTEYLKKNN | -0.266
56 | HMKVYPIMEAIANNNIELVKLLLEYHADLNIKDSNGNTPLALAKETGAKEVEDLLLQWMKQHT | -1.06
57 | HMKWGDTPTVEVPNLIGMKKKDLQTQLVDLKLDISGDGEKVIKQSPEAGAKVKEGSKIRIYFG | -0.332
58 | HMKWYDSDKGFGFLSQEEGEDVYVRSSALPAGVEGLKAGQRVEFGIASGRRGPQALSL | -0.31
59 | HMKYKKYKLLKDLPTFKAGQLAYISKTGNLIAGTPENQKTTETGLIIMIYHETTLKKFPNILTEWFEEIE | -3.3
60 | HMKYNGDRPVFNDDVAWAKWMLENPAKITSHDKENLSSMLKKPEVVMLFEAEDLSVPDLRTLAKE | ≥ 1.04
61 | HMKYNYEAQQSDELSLVKGSRIHVLEKSSDGWWKGEIDNVVGWFPS | -0.239
62 | HMKYRLLGENLQTIRKARGMKQQELADQIGINMQSLSKIERGLNYPTFETLEKIMNALGITPNELLSG | -0.82
63 | HMKYRPGDVVTLRVARMGEMGAFLDAGTGNTNDDILLHKMQQTEEIKAGQDVKVYLYLDPNRRLTASMKL | -0.835
64 | HMKYSNDEVERDLYVRGVIYQIGDLVENKLDGTSGEVVRRGPNYVQYTDGENFYKAFLSALQEQK | -0.369
65 | HMKYSYAELTKLQEQIAQDRNAPLTVPNALGIGLDERNNVIEITVNIADEAAAKAYYLQKYGDRISLKTTD | -0.317
66 | HMKYTEEIFNILSRGGFISANSVSSTVKRYYDALEEDFTEYYDYYKGIGFYLEAGNGYYLFTR | -3.41
67 | HMKYTVKSPLPGVIMSVLVKVGDTVKASDTVISLEAMKMENAIHAGRDGKVTSIDVNVGDSVLEGHTLVTI | -0.594
68 | HMLAAGTPLTVVTESSNLNIRQEPSTEAAVVGKAAKGEIVTLVEQTSGEWWKVSTKDGEEGYAYSRYL | 0.678
69 | HMLAAGTSLTVDTESSNLNIRQEPSTEGVILGKAAKGEVVTLVEQSSDEWWKIKTKDGEEGYAYARYLR | 0.175
70 | HMLADRANMAPAALRQIMTAIDGGNVTPKQIESATGMAHATVARALRKMLDDGLIANDGKGRYTVLT | -0.212
